Data: patent publication US20050266009A1

Experiments:
Assay in all cases: ELISA on coated peptide
[1] = biological target: T1, CCR5 (residues 1-18) derived peptide sulfated at 1st tyrosine position
T1 sequence (peptide, sulfated at 1st tyrosine position): MDYQVSSPIYDINYYTSE

[2] = biological target: T2, CCR5 (residues 1-18) derived peptide sulfated at 2nd tyrosine position
T2 sequence (peptide, sulfated at 2nd tyrosine position): MDYQVSSPIYDINYYTSE

[3] = biological target: T3, CCR5 (residues 1-18) derived peptide sulfated at 3rd tyrosine position
T3 sequence (peptide, sulfated at 3rd tyrosine position): MDYQVSSPIYDINYYTSE

[4] = biological target: T4, CCR5 (residues 1-18) derived peptide, non-sulfated
T4 sequence (peptide): MDYQVSSPIYDINYYTSE

[5] = biological target: T5, GPIb (residues 268-285) derived peptide sulfated at 1st tyrosine position
T5 sequence (peptide, sulfated at 1st tyrosine position): GDEGDTDLYDYYPEEDTE

[6] = biological target: T6, GPIb (residues 268-285) derived peptide sulfated at 3rd tyrosine position
T6 sequence (peptide, sulfated at 3rd tyrosine position): GDEGDTDLYDYYPEEDTE

[7] = biological target: T7, GPIb (residues 268-285) derived peptide, non-sulfated
T7 sequence (peptide): GDEGDTDLYDYYPEEDTE

[8] = biological target: T8, PSGL-1 (residues 42-58) derived peptide sulfated at 1st tyrosine position
T8 sequence (peptide, sulfated at 1st tyrosine position): QATEYEYLDYDFLPETE

[9] = biological target: T9, PSGL-1 (residues 42-58) derived peptide sulfated at 2nd tyrosine position
T9 sequence (peptide, sulfated at 2nd tyrosine position): QATEYEYLDYDFLPETE

[10] = biological target: T10, PSGL-1 (residues 42-58) derived peptide sulfated at 3rd tyrosine position
T10 sequence (peptide, sulfated at 3rd tyrosine position): QATEYEYLDYDFLPETE

[11] = biological target: T11, PSGL-1 (residues 42-58) derived peptide, non-sulfated
T11 sequence (peptide): QATEYEYLDYDFLPETE

- ELISA reading at 450 nm [1]: 0.06
- ELISA reading at 450 nm [2]: 0.06
- ELISA reading at 450 nm [3]: 0.06
- ELISA reading at 450 nm [4]: 0.06
- ELISA reading at 450 nm [5]: 0.07
- ELISA reading at 450 nm [6]: 0.07
- ELISA reading at 450 nm [7]: 0.07
- ELISA reading at 450 nm [8]: 0.06
- ELISA reading at 450 nm [9]: 0.06
- ELISA reading at 450 nm [10]: 0.06
- ELISA reading at 450 nm [11]: 0.06
Substance: N06 scFv (negative control)
